Measurements from patent publication US20240317847A1 (Bayer, published 2024).

Tests used:
[1] = target: T1, human IL-11 (Invigate, e.g., lot #C121021-19) (human, UniProt P20809 22-199); assay: ELISA, receptor-Fc titrated on biotinylated IL-11 captured on streptavidin plate; species of IL-11 not said
T1 construct: Bought protein; also called hIL-11; hIL11
T1 sequence: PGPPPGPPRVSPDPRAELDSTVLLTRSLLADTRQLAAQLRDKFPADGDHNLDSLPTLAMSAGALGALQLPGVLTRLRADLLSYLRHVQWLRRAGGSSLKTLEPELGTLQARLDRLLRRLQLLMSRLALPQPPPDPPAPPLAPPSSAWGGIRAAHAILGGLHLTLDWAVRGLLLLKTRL

[2] = target: T2, murine IL-11 (Invigate, e.g., lot #C210819-09) (mouse, UniProt P47873 22-199); assay: as above
T2 construct: Bought protein; biotinylated where captured on streptavidin plates; also called mIL-11; mIL11
T2 sequence: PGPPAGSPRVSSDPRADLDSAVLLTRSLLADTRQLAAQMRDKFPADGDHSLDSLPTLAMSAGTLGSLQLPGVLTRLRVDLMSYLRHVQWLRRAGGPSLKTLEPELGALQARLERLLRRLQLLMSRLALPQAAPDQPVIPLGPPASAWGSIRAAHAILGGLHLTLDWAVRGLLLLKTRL

[3] = target: T2, murine IL-11 (Invigate, e.g., lot …); assay: SPR, Biacore 8K; antibody captured on anti-human IgG Fc chip
Protocol: (§1) Antibody binding affinity to hIL-11 (Invigate, Germany, e.g., lot #C121021-19) and mIL-11 (Invigate, Germany, e.g., lot #C210819-09) was detected using Biacore 8K. Each antibody was captured on an anti-human IgG Fc antibody immobilized CM5 sensor chip (GE). hIL-11 and mIL-11 at different concentrations (0, 5, 15.82 and 50 nM) in 1×HBS-EP+ (pH 7.4) (GE healthcare) were injected over the sensor chip at a flow rate of 30 μL/min for an association phase of 120 s, followed by 200 s dissociation phase. The chip was then regenerated by 10 mM Glycine, pH 1.5 after each binding cycle.

[4] = target: T1, human IL-11 (Invigate, e.g., lot …); assay: SPR, Biacore 8K; antibody captured on anti-human IgG Fc chip, IL-11 analyte 0-50 nM, 1:1 fit
Protocol: as §1
The sensorgrams of blank surface and buffer channel were subtracted from the test sensorgrams. The experimental data was fitted by 1:1 model using Langmiur analysis. Molecular weight of 19.3 kDa was used to calculate the molar concentration of human and mouse IL-11.

human IL-11 [5] = target: T3, human IL-11 (human, UniProt P20809 22-199); assay: cell-based or functional assay
T3 sequence: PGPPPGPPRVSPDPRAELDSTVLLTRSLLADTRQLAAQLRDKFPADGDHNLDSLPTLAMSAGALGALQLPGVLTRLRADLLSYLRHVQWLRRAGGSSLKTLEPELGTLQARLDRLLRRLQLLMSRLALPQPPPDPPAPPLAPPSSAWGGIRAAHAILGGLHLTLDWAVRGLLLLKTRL

murine IL-11 [6] = target: T4, murine IL-11 (mouse, UniProt P47873 22-199); assay: cell-based or functional assay
T4 sequence: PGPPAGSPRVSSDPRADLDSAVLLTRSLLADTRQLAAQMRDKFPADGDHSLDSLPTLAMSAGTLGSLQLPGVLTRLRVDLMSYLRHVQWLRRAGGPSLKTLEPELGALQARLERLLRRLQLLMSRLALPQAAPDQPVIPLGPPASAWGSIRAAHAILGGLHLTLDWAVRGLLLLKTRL

human IL-11 [7] = target: T3, human IL-11; assay: SPR (Biacore), 25 C, antibody captured via anti-Fc, IL-11 as analyte
Protocol: (§2) To assess the binding kinetics and affinity of anti-IL-11 bispecific antibodies as well as their species cross-reactivity profile, binding assays were conducted using surface plasmon resonance (SPR). […] Antibodies were captured either via anti-human Fc IgGs (“Human antibody capture kit”, Order No. BR100839, Cytiva) or via anti-mouse Fc IgGs (“Mouse antibody capture kit, Order No. BR100383, Cytiva) covalently amine coupled to a Series S CM5 sensor chip (Cytiva) depending on the isotype. The amine coupling was carried out according to the manufacturer's instructions using 1-ethyl-3-(3-dimethylaminopropyl) carbodiimide hydrochloride (EDC), N-hydroxysuccinimide (NHS) and ethanolamine HCl, pH 8.5 (“Amine Coupling Kit” BR-1000-50, Cytiva.). Human, mouse, cynomolgus or rat IL-11 was used as analyte at several dilutions within the concentration range from 0.05-200 nM. For binding assays with only one concentration 200 nM IL-11 was used. The sensor surface was regenerated with glycine pH 1.7 after each antigen injection. Obtained sensorgrams were double referenced (subtraction of reference flow cell signal and buffer injection) and were fitted to a 1:1 Langmuir binding model to derive kinetic data using the Biacore T200 Evaluation software or the Biacore Insight software.
(§3) If no value is reported, there was either no binding or very low binding and multiphasic binding behavior.

murine IL-11 [8] = target: T4, murine IL-11; assay: as above
Protocol: as §2, §3

cynomolgus IL-11 = target: T5, cynomolgus IL-11 (cynomolgus, UniProt P20808 22-199); assay: as above
T5 construct: Invigate recombinant protein; also called cIL11; Macaca IL-11
T5 sequence: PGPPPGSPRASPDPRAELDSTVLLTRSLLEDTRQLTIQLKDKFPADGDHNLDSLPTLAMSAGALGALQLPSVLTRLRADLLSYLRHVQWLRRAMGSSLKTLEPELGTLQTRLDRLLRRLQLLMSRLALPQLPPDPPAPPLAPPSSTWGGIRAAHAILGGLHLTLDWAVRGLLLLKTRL
Protocol: as §2, §3

rat IL-11 = target: T6, rat IL-11 (rat, UniProt Q99MF5 22-199); assay: as above
T6 construct: Invigate recombinant protein; also called rIL11
T6 sequence: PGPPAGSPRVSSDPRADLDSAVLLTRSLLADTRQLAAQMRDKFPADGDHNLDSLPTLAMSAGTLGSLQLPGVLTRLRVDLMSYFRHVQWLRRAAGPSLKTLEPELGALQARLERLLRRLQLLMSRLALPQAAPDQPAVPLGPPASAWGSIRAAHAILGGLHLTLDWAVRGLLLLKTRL
Protocol: as §2, §3

human IL2Ra = target: T7, human IL2Ra (human, UniProt P01589 22-240, limits assumed); assay: ELISA on coated IL2Ra, signal ratio to isotype control at 1E-07 M antibody
T7 construct: coated on the ELISA plate; also called IL-2 receptor alpha
T7 sequence (looked up): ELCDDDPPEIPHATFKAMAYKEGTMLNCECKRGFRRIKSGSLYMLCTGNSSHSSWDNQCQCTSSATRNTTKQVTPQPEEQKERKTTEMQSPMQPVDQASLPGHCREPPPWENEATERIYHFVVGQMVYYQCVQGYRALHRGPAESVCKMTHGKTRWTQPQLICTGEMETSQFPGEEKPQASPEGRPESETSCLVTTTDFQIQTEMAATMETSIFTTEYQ
Protocol: IL2RA (Peprotech, Germany, #200-02RC) was coated at 1 or 0 μg/ml (buffer only control) in 30 μl coating buffer (Candor, #113500) per well on a 384 well microtiter plate (Maxisorb, Nunc, #460518) over night at 4-8° C. After two washes with 50 μl/well washing buffer (PBS+0.05% Tween, pH 7.4), the plates were incubated for two hours at room temperature with 50 μl/well SmartBlock (Candor, #113500). After blocking, the plates were washed three times with washing buffer. Then, a dilution series of the respective antibody (1E-7 [M] down to 2E-13 [M]) in PBS+0.05% Tween, 10% SmartBlock were added in 30 μl to the microtiter plate and incubated for 90 min at room temperature. After three additional washes, 30 μl anti mouse IgG HRP-conjugated antibody (Biotechne, HAF007), diluted 1:1000 in PBS+0.05% Tween (pH 7.4), were added per well and incubated for one hour. After three additional washes, a mixture of Amplex red (Invitrogen, #12222, 10 mM stock solution in DMSO) 1:1000 diluted in PBS and H2O2 (30%, Merck, #107209)) diluted 1:10000 in PBS were added as substrate with 30 μl per well and incubated for 20 min in the dark. Relative fluorescence was measured with a microtiter plate reader at 535/590 nm.
Bispecific antibodies were subjected to the experimental assay procedure described in Example 20. Ratios of the signals generated at an antibody concentration of 1E-07 [M] by the respective bispecific antibody versus those of an isotype control antibody were calculated and are shown in Table E29. The bispecific antibodies show no binding to IL-2 Ra.

human IL-11 [9] = target: T3, human IL-11; assay: Di-complex ELISA, canine IL11RA-hFc binding to immobilized hIL-11, competition
Protocol: (§4) In the Di-complex ELISA format anti IL-11 antibodies are tested for the ability to interfere with the formation of complexes consisting of immobilized murine IL-11 (Invigate, e.g., lot #C210819-09) or human IL-11 (Invigate, e.g., lot #C121021-19), and murine IL11RA-Fc fusion proteins or canine IL11RA-human-Fc fusion protein (FIG. 17a, b).
(§5) Bispecific antibodies were subjected to the experimental assay procedure described in Example 18 and IC50 [M], respectively efficacy (%) were calculated accordingly.

murine IL-11 [10] = target: T4, murine IL-11; assay: Di-complex ELISA, canine IL11RA-hFc binding to immobilized mIL-11, competition
Protocol: as §4, §5

human IL-11 [11] = target: T3, human IL-11; assay: Tri-complex ELISA, hIL-11 + mIL-11Ra-Fc + hgp130-Fc, inhibition of complex formation
Protocol: (§6) In the Tri-complex ELISA format IL-11 antibodies are tested for their ability to inhibit the formation of a complex consisting of murine or human gp130-Fc fusion protein, with murine or human IL-11, and a murine IL11RA-Fc fusion protein. The assay format was adapted according to FIG. 18 (a, b), depending on whether murine or human IL-11 IgG antibodies were tested.
(§7) Bispecific antibodies were subjected to the experimental assay procedure described in Example 19 and IC50 [M], respectively efficacy (%) were calculated accordingly.

murine IL-11 [12] = target: T4, murine IL-11; assay: Tri-complex ELISA, mIL-11 + mIL-11Ra-Fc + mgp130-Fc, inhibition of complex formation
Protocol: as §6, §7

B1: canine IL11RA-human-Fc fusion protein (Sino Biological, #70078-D02H) (Fc fusion)
chain: SPCPQAWGPPGVQYGQPGRSMTLCCPGVTAGAPVSWFRDGETRLLQGPDSGLGHELVLAQADSTDEGTYICRTLDGALGGIVTLQLGYPPARPVVSCQAADYENFSCTWSPSQVSGLPTRYLTSYRKKTVPGADGQRMSPSTGPWPCPQDPPGAARCVVHGAEFWSQYRINVTEVNPLGTSTRLLDVSLQSILRPDPPQGLRVESVPGYPRRLRASWTYPASWPRQPHFLLRFRLQYRPAQHPAWSTVEPAGLEEVITDAVAGLPHAVRVSARDFLDAGTWSAWSPEAWGTPSTGSLPKEIPAGGQPRKQLEEEPQADSPTPPRPSLLPDPRPLDQRDPLEQIAVLA
notes: Used in the Di-complex ELISA when murine IgGs were tested; also called canine IL11RA-Fc; Canine IL-11Ra fused to human Fc; not shown: human Fc (and any linker) of the bought fusion protein, Sino Biological #70078-D02H
EC50 [1]: ~2 nM
EC50 [2]: ~2 nM

B2: TPP-31280 (antibody, human IgG4, V domains shown)
VH: EVQLLESGGGLVQPGGSLRLSCAASGFTFSHYDMNWLRQAPGKGLEWVGVISYDGSNKFYADFVKGRFTISRDNSKNTLYLQMNSLRAEDTAVYYCARTPGSHFDYWGQGTLVTVSS
VL: QSVLTQPPSASGTPGQRVTISCSGSSSNIGNNAVNWYQQLPGTAPKLLIYRDDLLPSGVPDRFSGSKSGTSASLAISGLRSEDEADYYCSAWDDSLNGVVFGGGTKLTVL
notes: consecutive numbering; also called VL-Y51R
binding result [3]: no binding (tested: 50 nM (highest IL-11 concentration))
Kd [4]: 600 nM

B3: TPP-26195 (bispecific antibody, IgG1)
chain 1: EVQLLESGGGLVQPGGSLRLSCAASGFTFSSYGMHWVRQAPGKGLEWVSVISYDGSYKYYADSVKGRFTISRDNSKNTLYLQMNSLRAEDTAVYYCAAGVPDYWGQGTLVTVSSGGGGSGGGGSGGGGSQSVLTQPPSASGTPGQRVTISCTGSSSNIGAGYDVHWYQQLPGTAPKLLIYSNNERPSGVPDRFSGSKSGTSASLAISGLRSEDEADYYCAAWDDSLNGPVFGGGTKLTVLGGGGSGGGGSGGGGSGVECPPCPAPPVAGPSVFIFPPKPKDVLTITLTPKVTCVVVDISKDDPEVQFSWFVDDVEVHTAQTQPREEQFNSTFRSVSELPIMHQDWLNGKEFKCRVNSAAFPAPIEKTISKTKGRPKAPQVYTIPPPKEQMAKDKVSLWCMITDFFPEDITVEWQWNGQPAENYKNTQPIMDTDGSYFVYSKLNVQKSNWEAGNTFTCSVLHEGLHNHHTEKSLSHSPGK
chain 2: EVQLLESGGGLVQPGGSLRLSCAASGFTFSHYDMNWLRQAPGKGLEWVGVISYDGSNKFYADFVKGRFTISRDNSKNTLYLQMNSLRAEDTAVYYCARTPGSHFDYWGQGTLVTVSSGGGGSGGGGSGGGGSQSVLTQPPSASGTPGQRVTISCSGSSSNIGNNAVNWYQQLPGTAPKLLIYYDDLLPSGVPDRFSGSKSGTSASLAISGLRSEDEADYYCSAWDDSLNGVVFGGGTKLTVLGGGGSGGGGSGGGGSGVECPPCPAPPVAGPSVFIFPPKPKDVLTITLTPKVTCVVVDISKDDPEVQFSWFVDDVEVHTAQTQPREEQFNSTFRSVSELPIMHQDWLNGKEFKCRVNSAAFPAPIEKTISKTKGRPKAPQVYTIPPPKEQMAKDKVSLSCAITDFFPEDITVEWQWNGQPAENYKNTQPIMDTDGSYFVVSKLNVQKSNWEAGNTFTCSVLHEGLHNHHTEKSLSHSPGK
notes: scFv-kih-mIgG1
Efficacy (%), Stat3 reporter gene assay (human IL-11 [5]): 88.5%
IC50, Stat3 reporter gene assay (human IL-11 [5]): 0.65 nM
Efficacy (%), Stat3 reporter gene assay (murine IL-11 [6]): 96.9%
IC50, Stat3 reporter gene assay (murine IL-11 [6]): 1.8 nM
Kd (human IL-11 [7]): 0.083 nM
Kd (murine IL-11 [8]): 0.046 nM
Kd (cynomolgus IL-11): 0.074 nM
Kd (rat IL-11): 0.045 nM
Ratio IL-2Ra Binding Signal Antibody/Isotype Control (human IL2Ra): 146 ratio
IC50 (human IL-11 [9]): 6.3 nM
IC50 (murine IL-11 [10]): 4.1 nM
Efficacy (%) (human IL-11 [11]): 98%
IC50 (human IL-11 [11]): 1.28 nM
Efficacy (%) (murine IL-11 [12]): 98%
IC50 (murine IL-11 [12]): 0.258 nM
